Measurements from the NTF2 design screens of Basanta et al. (2020).

Assay: protease stability score; higher = more stable; yeast display proteolysis, trypsin and chymotrypsin;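 further: relative to predicted unfolded state with 0 unfolded-like and 1 meaning tenfold more protease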

First: DEDEELARQIWELFVRAEETGDEELLEKLIDPHTRLHIGDKVFHGRDAIKHIRKRVDHVKRVHVESIRVFDGRVEIHSRQRWEINGVEVEQKFRFTMQKINGRWIMHDMSIL
Second: SEDHKQAEEFMHRVAHNVLTGDEEKLDELIDPDARLEIGDKEHHGREIFIEFWRQLRVRDIKIRHWEIIGDKIFIRGEMNGIVDGRTRIFDIIVVMVKINGKWTLKRVEIK
The protease stability score of the first is higher: 1.79 for the first, 1.5 for the second.

Compared with “DEAHEWLKTLADLFFHWMLTGDFEHWIDYLDPDAKIEFEGRSNHGRENIYQLLLELKQEIRVRDYELKDVRIQGEKLLLNVHLHGHIGDKEIRTDTVLRLRVVDGRLKEVHIEIR”, “DERKEDLDRALEEFLRSVETGDEELNERLADPNVKLVIDGVKYHGMEFIVKQLDEWRIHDMRIRRIRNVGEKVYVDLSVDGNFNGRRYRTEVKIVFTKINGRWLLETHIVD” is higher in protease stability score: 1.52 for the first, 1.87 for the second.

Going from “SEDEKIAEHLMHEISRSTQTGDEEMSRRLMDPNVRIDINGKQIHGWETWQKEVERVDHSHSRFQLRDVRSQGNYLDARGEFHLDLHINGRTVHIVYDVTFIILKIDGRWFLHSIKVR” to “DDRERESKEAVEFFLHAVDTGDFDRIREMLDPHMRVEIDGQEFHGRERALDLIHKEMFDLGVDRIRIEIHDMELVDGRVEVDVHVDVNGRIIRSEYIMKKIDGRWRIHSIKRR”, the protease stability score rises from 0.519 to 1.98.

Going from “DERKHFFDIALEILKKTIKTGDEREHNENVDPRVKNDINGVELHGMETVSEFHLRLWEEMRVEEIHIRDLDIQGNKAVFHTSLRRRYNGRELEIELHYIVVKVNGRWFIQEIIIR” to “SEDEEEATHLSRVLIELLKTGDEEMLEHLADPNDRNDFNGRVKHGRELVTKMLRKLMTDLGIDHIEHVTLRRLEVQGEWVKFNFEIIGRVNGRELSFRVRFIMEKVDGKWRLSERHTI”, the protease stability score rises from 1.57 to 1.71.

Going from “DEETEEERKITELSLKAYKTGDEDTLSSLIDPHARFIYNGRHHHGRETASHILRRETERLGVKHIHLKDTEIDDVNGVVDMRIHMMVHYGNKTTELIIILRITKFNGRWIIETIEVRVR” to “SERSEFITRLTREMIHAFETGDWKWLSELLDPNTRYHFRQGDKEFDMHGREEMVKMLEKILRHFGIDHFHIEDVKLYGDKVIVHHRSLVNGKEVHVRIEWDIVDGRIKSFNLDYHEN”, the protease stability score rises from 0.691 to 1.26.

Compared with “SEDEEDSKEAFRLVEEILITGNEEEIDDMADPHTRVQIGNKIWHGRELFLDWVREHLRRADVVRDVHLTHESAYDGKVELHMKVVIHYGDKTIDTEMVFVSRKIDGKWITHSITMV”, “SEEEHEIRRAVEHWYRSLHTGDEEESIDLVDPHTITIVNGREVHGRHLMYEIMRKFKNAKIEFEITHHEVVNGRADVNMRLTVHIGDKTYETIIHLHTEKVNGRWTVRHWEVK” is higher in protease stability score: 1.18 for the first, 1.46 for the second.

Compared with “REDERISQIAIEIVEHLIRTGDERVESELADPHMKLRINGVEIHGRERVHDWIHRFVTEFGIDRVEARVHDSHVVNGRIYNDTESHINGKNVKMRWIAIKYNGRWIQTMITFE”, “SEEEHTSEEALRAFVFLELTGDEKSLIELLDPRTRIHAENHEVVGRERATEEWRRWLEFYKNIRVHDVEIEEIHLIDGRIKLIMRRDGVINGVKRETHIRMITNKVNGRWLVHSIIIR” is higher in protease stability score: 1.3 for the first, 1.37 for the second.

Compared with “DEIERKVIEFWHLLRHALITGDEDLIEDLFDPHVRTDIGDKEHHGREEFRRLWREHGIRIKDVHIEHVTIIGNKVDMEVRFHLEINGRETHKRVILVAQKIDGRWRIREYHVK”, “SEKEKLSKDLTRLLLEIIMTGDWKALSDNMDPEARQDIGDKHIVGREIISQFKMELDEEAGFKHSEIQRIRIIGDKIEMDVHVDQGDKHHTVHIIVIIVNGRIKHVEVRIR” is higher in protease stability score: 1.88 for the first, 2 for the second.

Going from “DEETEWLERLVRVILHALDTGDEDEMNQNADPHTRVRVGDKEYHGRELFLDVFRERVHRLGIDHSNLREFDIQGDFFHLDTRLQVGDKFLEVNLIFHVINGRITIVRIDYR” to “DEEEEREKELRERWEHFLKTGDWKKIEELADPHVRLDVGDKELVGRELFVEFIRRLLEHLGFNVFRINHIDLQGEKINMDVEREIGDKSTRVELHILKIDGQWILKRVIIN”, the protease stability score rises from 1.15 to 1.82.

Going from “DEERKHSEDLKDMHLKSMLTGDEEFISHLADPNVRIVFNGRDLHGRELLHEILKRINEELGVSNIEVRLHHIEIVGEWVHIHGRLHWNGRTSRIHLLLFKIDGQWNIKSIHIEIE” to “DEDKKVFETALRILIHYERTGDWELLHRLADPNTRMIQGDKLHIGREKAKEFINKWTEEMRPTDVRIDHVEIINGRIHIEGTTHGDVNGQRHDLEVHILSIKVDGRWRLKEFELK”, the protease stability score falls from 1.22 to 1.2.

First: DEEEEYAHRFVEDFIDAWLTGDEDRLEELMDPNVKIVVGDKVLVGRHLVIRLMHEWIRKYKGIKFVFHVKHLEAINGRLEIESEVDLRINGRKIKHTSKMVVRKIDGKWEIREFHLN
Second: SEEHKEAREFLEEWITFIHTGDEDMIHKMLDPDTRSNINGRDLHGRELAVKIIIEEVRRYRGVQIRMEREHVVDGRMESTIRVHQGEKEFEVIVHFVKINGRWRLKWIEIR
The protease stability score of the first is higher: 2.38 for the first, 1.3 for the second.

First: DEEREFSERAIEMSLEDWLTGDEHRMHRMLDPHVRLDIDGRDIIGRERMTKIIFEINKTLGVDHVEFHDHEIQGDKVHSHLDVHINGRRLRITLHLYKIDGRWQIREVKVV
Second: SEEEEHIREHSERFIEAWKTGDWEELSRMIDPHARIVVNGKEVHGRSDIERMLRETMEKMGANHIQEESVHYQGNKIILHETVNVGDKRLRLTIVIHVVNGKVRRVEFHIEQR
The protease stability score of the first is lower: 1.13 for the first, 2.17 for the second.

First: SETEEAATLMLRMLIETIYTGDEETYKRLADPHVKVRIGDKTFHGREQVIERLHRTWKEMRIEDVEVQDMRYQGDFIRNRTHILLHQGEYRHRFDVEIIVFKFNGQWILTSQHFH
Second: DEEKKEILEIARRVIESLLTGDWEEDHELADPNVLYIQGDKEVHGMETTWRIIFELRHQIKGMTEHIHIRRVEIVNGVAHLDTELRLNVNGREVTHETHVHIFLYNGRVKRIEVRIK
The protease stability score of the first is lower: 1.11 for the first, 1.48 for the second.

First: SEEEHYMLKVAKLAVRNYFTGNEHVLDELFDPHTRQEVNGVENHGRETVRDFLREHLKHMRFHDFKIRDFKWQGDKAHTETETDVEIDGQRIPLRMEIIIIIIDGVPKSISLRLG
Second: SEEEDMKRKLAEIFLHNELTGNEDRLMELLDPNTRMEFNGREVHGREQISEVLRRWLEEIRIDDSKLHDIRVINGVAHIDVRLRGTVDGRHTILQVHLYLFVVNGRIKSFRIEIR
The protease stability score of the first is lower: 1.05 for the first, 1.53 for the second.

Going from “DEEERLDEEIMERIHKAYATGDFDEIKRLIDPHVRSDINGVDTHGRDDAIHYLHHVYRRLGFKHFELKHVESYDGRVHTDGWLRFNGQERRVEFRWQVIDGRIHSVSLRMK” to “DEDEREVKHWLKILLHELWTGDFRNVSRLMDPHARLLINGVTVVGREEFLEVLRRVDHIELRIRDMKVIDGRIHAETELIEHFDGRTFIHDTHMRAKKVDGRWRIESIEIR”, the protease stability score rises from 0.975 to 1.31.

Compared with “SEEEERLRRFFEEFIKWHVTGDEEHLERLMDPNAKFIVNGVESHGWENTSRHLKELRIHELNIRRVEIVNGRIHISGLAKGEFNGRHRETTVHIHIVVIDGRVKEMSIEVR”, “DEHEHLALRMTTRFTDMLRTGDWENMLRYFDPDARIIIDGRKHHGRERMHEIWREIRVTDLRINRERVRVQGDFVINHIDGEEDVEIGDKRISTRSIIILVVHKIDGRWHMKELEINIV” is lower in protease stability score: 2.48 for the first, 0.796 for the second.

Going from “DELRKESEDLVRILIEIFHTGDEDVFKRMADPHVRLIAENRIVVGRDLVSRFFRHLLEKYPNVTDHVDVRRIILVGDWLHIDLRIDIEIGDKRHEHDVKIHVRKIDGRWVITEIHVK” to “DEEHRSSHHAVEVQFRVLHTGDFHDLRRQLDPDVKFHIDGVNDHGREVFEERVRELGIKHLLIEDHHVEIQGEWAHLRMKGLMEINGKEIKLHIRYLLLKVNGRWSAHTVSIHLE”, the protease stability score falls from 1.85 to 1.36.

Compared with “DEDHDVYHRLVKITLSLLATGDESWMKKLFDPHVRVNINGVDVHGREWLLKLFRLLLERLGVDHMTAHVHDFRQYDGRVHADTTEVYDVDGREIRFKTEVIIDKFNGRWFVTFVIII”, “DEDDHFWERLTEIILHILQTGNEEALHRMLDPHMRLDYNGRSFHGRELAQKALMRFWEDLGVDHIRVKDRRVQGDKVHLHGEIIIDGRLHETREHWLIVNGRIKHVRLEIR” is lower in protease stability score: 1.78 for the first, 0.696 for the second.

First: DEERHEALRVAKEFMHNFWTGNEELNRHLIDPNVRLTIEVGDKRIDRVGRESFSHTLHRWREHLRIEDLDETRIDVQGDKAVLHTIMHIKIGDKHITVEVDINILVVDGRLRHIRVIVR
Second: SEDEKIHREMSKIMLEDLFTGDWKSLRDLVDPNVRIIVDGREFHGREYYSRELIEELLKFKNARFDIEHVELRIYDGRLRTLIHMRVNIDGVEHWVIVEVDFTKIDGRWYVEEIRVEVR
The protease stability score of the first is higher: 2.01 for the first, 1.33 for the second.

Going from “TEDREIAKKFAEHMIHNYETGDFERILELLDPHTKIHVNGKDMHGREHWLHHLKKWGVDRIESEIRHVEIQGDKVKVDTELHYGDKTIERTVIFEKFDGRWVLREVRVD” to “SERKQASEDAFRIYIETFKTGDERTMRENMDPDVRVHIGEFNHHGMEESAHLLHEYWKRFGFRIRHVHIEDVKNVGNKVILHTLSEIEINGREEHVDTELIILKIDGKWLVEEVRVK”, the protease stability score falls from 1.12 to 0.92.

Going from “SEEEKFAERFIRLFMEALETGDERVLEELLDPNVRVEVNGREYHGRDVFTRLVREWRIDHLDTHTHRIDSQGDKVNADTRVRFHHKVGDKVHDTEMHVILHSEKFNGRWHMTEIIIR” to “DKEKEDLKKLSDWWLHAIETGDFETIFRLLDPHVRIEINIGDKTHSIHGREEFYKWLHRVKNLQMTIHHSEPIGDKIRLHGFFVIDGVHHDTRHELYFIDGRLHEVHIHVI”, the protease stability score rises from 1.34 to 2.21.

First: DEEEKDAIMLSEISTHLMSTGDEHETSHNADPNTRLEYGDFEFHGREEFIKIWVEQMEKVKGMTIRLHSIHVQGDKAVSHVKIHVNGVDFHIIYIAEKFNGRWQLRSSIVI
Second: SEDEKRLLDLAKEWIHNWLTGDEESMQKLADPSTRYEIGDKELHGMEEVNRSIKISLDELRVKHIDIERVKAINGVVTIHTRIDVEFNGKRMIIETIIRIDIFNGRIKQVWVEFR
The protease stability score of the first is lower: 1.06 for the first, 1.21 for the second.

Going from “SEEEKWAELALEETLRHLKTGDPRVLLELADPNVKLDVNGREYHGREVFLNFIEEFREKFKNITIEVKDRDVVNGRLITHLRLIVNGKEERVHMRSHKVDGQWVLDSVKIE” to “SESEEHSKKLFDTWVHSELTGDERSLLHLMDPHVKFIIDGREIHGREKASEFLVKLREHLGAEIHDYRVRDMKIQGEKVIIHSELDVQVDGVRHHERLVLIMHKIDGQWSVESVKRV”, the protease stability score falls from 1.9 to 1.08.

Compared with “DEDHRDAIFILRLFLHATETGDEDSLETLMDPHVKLEINGVRIHGRETTYILMRHWRFRIEHLEIRNFDVFNGRLELIGHRHTTINIDGREERHTVRLEVHIWKINGQWLVQHIHIH”, “DEENEHAKHLMRELIKSIITGDEEMIDHLADPNMRLRVGDKEWHGREEIQHWLRRLVEEARIHDVELTSVRTIGDKVILDTRVDIKQGDKRKIITLIIIVQKFDGRWIIEEIRIH” is lower in protease stability score: 2.91 for the first, 2.57 for the second.

Going from “DERTKQFNELLHIFIRDLHTGDEESHERMMDPNVRTEVGEFRMHGRENVRHWWHEWLRLLGLDRIEVRVRDHHVIDGRLRIDVELKQGDKNIDTHVILVVINGRMHSQRYEFH” to “SEDEHQSKLALELLQESSYTGDWKTSQDLMDPHARFVIGDKYVHGMEEVSRMMEEIRIEEIHIRKIHTVGNKIEIKGEIRIRIGDKHTSTEVEWVASKVNGRWLLEELVVH”, the protease stability score falls from 0.717 to 0.511.
